Assay results as given in patent publication US6641994B2, “Methods of identifying anti-viral agents” (Pharmacia & Upjohn Company, priority 1999, dated 2003).
Where no end group is shown, it is not given here.

How the values were obtained:
CDK2 = target: T1, CDK2 (Homo sapiens, UniProt P20248+P24941); type: biochemical
T1 construct: hemagglutinin (HA); made in house; host or cells: Sf9 or High Five insect cells, baculovirus co-infection

cyclin A/CDK2 = target: T2, cyclin A/CDK2 (Homo sapiens, UniProt P20248+P24941); type: biochemical
T2 construct: hemagglutinin (HA); made in house; host or cells: Sf9 or High Five insect cells, baculovirus co-infection
T2 sequence (P20248 whole entry, one chain of several): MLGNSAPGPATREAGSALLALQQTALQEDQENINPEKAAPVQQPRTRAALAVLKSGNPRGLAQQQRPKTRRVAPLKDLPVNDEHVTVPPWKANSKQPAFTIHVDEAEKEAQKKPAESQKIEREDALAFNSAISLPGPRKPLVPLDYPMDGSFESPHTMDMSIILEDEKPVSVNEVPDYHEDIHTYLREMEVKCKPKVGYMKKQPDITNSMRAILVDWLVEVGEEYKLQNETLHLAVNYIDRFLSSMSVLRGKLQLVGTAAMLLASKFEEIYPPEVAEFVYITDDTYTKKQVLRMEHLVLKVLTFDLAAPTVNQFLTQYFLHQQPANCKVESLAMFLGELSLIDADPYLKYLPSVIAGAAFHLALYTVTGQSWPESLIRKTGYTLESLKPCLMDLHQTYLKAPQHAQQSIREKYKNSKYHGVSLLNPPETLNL

pRb = target: T3, pRb (Homo sapiens, UniProt P06400); experiment: E7 binding assay (GST-E7 on glutathione-agarose beads), pRb
T3 construct: purchased QED Bioscience Inc
T3 sequence (P06400 1-928): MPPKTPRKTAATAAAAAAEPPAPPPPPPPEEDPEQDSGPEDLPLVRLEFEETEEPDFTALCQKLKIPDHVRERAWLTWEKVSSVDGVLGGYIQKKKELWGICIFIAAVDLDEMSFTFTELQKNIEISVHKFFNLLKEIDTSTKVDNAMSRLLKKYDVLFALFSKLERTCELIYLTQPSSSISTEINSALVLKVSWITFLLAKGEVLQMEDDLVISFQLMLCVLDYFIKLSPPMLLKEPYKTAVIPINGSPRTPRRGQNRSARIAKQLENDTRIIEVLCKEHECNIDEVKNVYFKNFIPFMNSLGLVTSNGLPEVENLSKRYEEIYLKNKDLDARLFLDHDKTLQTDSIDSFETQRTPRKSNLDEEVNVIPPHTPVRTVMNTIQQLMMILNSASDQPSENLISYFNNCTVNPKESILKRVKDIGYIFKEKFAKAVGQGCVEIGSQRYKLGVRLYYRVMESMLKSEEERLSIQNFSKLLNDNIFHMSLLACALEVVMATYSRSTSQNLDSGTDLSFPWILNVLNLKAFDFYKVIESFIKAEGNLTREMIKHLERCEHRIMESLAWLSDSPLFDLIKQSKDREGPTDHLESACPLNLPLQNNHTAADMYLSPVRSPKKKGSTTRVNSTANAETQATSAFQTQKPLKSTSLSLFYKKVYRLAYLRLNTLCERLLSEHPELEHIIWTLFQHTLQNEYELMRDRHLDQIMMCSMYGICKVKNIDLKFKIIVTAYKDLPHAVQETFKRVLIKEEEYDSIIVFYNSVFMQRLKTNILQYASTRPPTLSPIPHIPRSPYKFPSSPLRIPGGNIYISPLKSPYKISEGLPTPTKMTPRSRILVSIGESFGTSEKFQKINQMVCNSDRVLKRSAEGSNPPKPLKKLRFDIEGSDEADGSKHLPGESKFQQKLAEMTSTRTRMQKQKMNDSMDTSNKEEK
Experimental: For HPV31E7, the amplification product was subcloned into pGEX-4T-3 previously digested with BamHI, while HPV6b and HPV16 E7 amplification products were subcloned into pGEX-4T-3 previously digested with BamHI and XhoI. Proper orientation was determined using restriction mapping, sequence analysis was carried out using Perkin-Elmer ABI-Prism® technology, and the expression constructs were individually transfected into a JM 109 strain of E. coli. Bacteria in log-growth phase were harvested by centrifugation after a four hour induction with 0.5 mM IPTG at 30° C. […] After extensive washing with PBS, the GST-E7-coupled beads were stored at 4° C. until use. Protein levels were measured using a BioRad protein assay kit, and purified protein preparations were examined by SDS-PAGE followed by Coomassie blue staining and Western blotting. […]
GST-16E7 or GST-31E7 fusion proteins bound to glutathione-agarose beads were incubated with either purified pRb (QED Bioscience Inc.), His-p21, His-p21N, His-p21C, His-p27, His-p27N, His-p27C, or HEK293 cell lysate at 4° C. for two hours in binding buffer containing 20 mM HEPES, pH 7.4, 10 mM KCl, 1 mM EDTA, 1 mM EGTA, 140 mM NaCl, 13% glycerol, 1 mM DTT, and 1× protease inhibitor tablet (Boehringer Mannheim). […] Eluted proteins were separated using 15% SDS-PAGE and the proteins were analyzed by Coomassie blue staining and Western blotting.

T1 sequence (P20248 whole entry, one chain of several): as the sequence (P20248 whole entry, one chain of several) above

GST-E7 (20-48): internal HPV16 E7 region, residues 20-48, GST fusion (TDLYCYEQLNDSSEEEDEIDGPAGQAEPD; also: GST fusion partner left off)
induced kinase activity, level relative to that by full length E7 (CDK2): 33%

HPV E7(1-15): HPV16 E7 truncation, residues 1-15, GST fusion (MHGDTPTLHEYMLDL; also: GST fusion partner left off)
relative kinase activity compared to activity in the presence of full length E7 (CDK2): 15%

HPV E7(1-48): HPV16 E7 truncation, residues 1-48, GST fusion (MHGDTPTLHEYMLDLQPETTDLYCYEQLNDSSEEEDEIDGPAGQAEPD; also: GST fusion partner left off)
relative kinase activity compared to activity in the presence of full length E7 (CDK2): 73.25%

GST: glutathione-S-transferase alone, control for the fusion proteins [reference compound]
effect on cyclin A/CDK2 histone H1 kinase activity (cyclin A/CDK2): no effect

GST-16E7 (16-38): internal HPV16 E7 region, residues 16-38, GST fusion
induced kinase activity, level relative to that by full length E7 (CDK2): 53%

GST-HPV16-E7(39-98): HPV16 E7 amino terminal deletion, residues 39-98, GST fusion (DGPAGQAEPDRAHYNIVTFCCKCDSTLRLCVQSTHVDIRTLEDLLMGTLGIVCPICSQKP; cysteine pairing not given here; also: GST fusion partner left off)
induced kinase activity, level relative to that by full length E7 (CDK2): 18% | activation of cyclinA/CDK2, % of the activation activity of full length GST-HPV 16 E7 (cyclin A/CDK2): 28.6% | activation potential, repeat experiment (cyclin A/CDK2): 18%

GST-16E7(1-27): HPV16 E7 truncation, residues 1-27, GST fusion (MHGDTPTLHEYMLDLQPETTDLYCYEQ; also: GST fusion partner left off)
relative kinase activity compared to activity in the presence of full length E7 (CDK2): 28.64% | relative kinase activity compared to full length E7, repeat experiment (CDK2): 52%

HPV E7(1-38): HPV16 E7 truncation, residues 1-38, GST fusion (MHGDTPTLHEYMLDLQPETTDLYCYEQLNDSSEEEDEI; also: GST fusion partner left off)
relative kinase activity compared to activity in the presence of full length E7 (CDK2): approximately 72%

B1: GST-31E7: HPV31 E7 protein expressed as a GST fusion protein (protein)
chain: MRGETPTLQDYVLDLQPEATDLHCYEQLPDSSDEEDVIDSPAGQAEPDTSNYNIVTFCCQCKSTLRLCVQSTQVDIRILQELLMGSFGIVCPNCSTRL
modifications: left off: a dimerising Fc or GST
binding to pRb in HEK 293 cell lysate (pRb; HEK 293 cell lysate): bound | binding to purified pRb (pRb; purified pRb, SDS-PAGE, Coomassie and Western blot): bound | effect on cyclin A/CDK2 histone H1 kinase activity (cyclin A/CDK2): significant effect

B2: HPV6b: low risk-derived E7 from HPV6b, expressed as a GST fusion protein (protein)
chain: MHGRHVTLKDIVLDLQPPDPVGLHCYEQLVDSSEDEVDEVDGQDSQPLKQHFQIVTCCCGCDSNVRLVVQCTETDIREVQQLLLGTLNIVCPICAPKT
modifications: left off: a dimerising Fc or GST
activation of CDK2 histone kinase activity (CDK2): 15.8 fold

B3: HPV E7(1-87): HPV16 E7 truncation, residues 1-87, GST fusion (protein)
chain: MHGDTPTLHEYMLDLQPETTDLYCYEQLNDSSEEEDEIDGPAGQAEPDRAHYNIVTFCCKCDSTLRLCVQSTHVDIRTLEDLLMGTL
modifications: left off: a dimerising Fc or GST
notes: HPV16 E7 truncation, residues 1-87, GST fusion
relative kinase activity compared to activity in the presence of full length E7 (CDK2): 76.67%

B4: HPV E7(1-69): HPV16 E7 truncation, residues 1-69, GST fusion (protein)
chain: MHGDTPTLHEYMLDLQPETTDLYCYEQLNDSSEEEDEIDGPAGQAEPDRAHYNIVTFCCKCDSTLRLCV
modifications: also: GST fusion partner left off
notes: HPV16 E7 truncation, residues 1-69, GST fusion
relative kinase activity compared to activity in the presence of full length E7 (CDK2): 82.45%

B5: GST-HPV16-E7(9-98): GST-E7 construct encoding HPV16 amino acids 9-98 (protein)
chain: HEYMLDLQPETTDLYCYEQLNDSSEEEDEIDGPAGQAEPDRAHYNIVTFCCKCDSTLRLCVQSTHVDIRTLEDLLMGTLGIVCPICSQKP
modifications: left off: a dimerising Fc or GST
activation of cyclinA/CDK2, % of the activation activity of full length GST-HPV 16 E7 (cyclin A/CDK2): 64%

B6: GST-HPV16-E7(16-98): GST-E7 construct encoding HPV16 amino acids 16-98 (protein)
chain: QPETTDLYCYEQLNDSSEEEDEIDGPAGQAEPDRAHYNIVTFCCKCDSTLRLCVQSTHVDIRTLEDLLMGTLGIVCPICSQKP
modifications: left off: a dimerising Fc or GST
activation of cyclinA/CDK2, % of the activation activity of full length GST-HPV 16 E7 (cyclin A/CDK2): 53%

B7: Δ12; Δ24, 26: E7 with combined point mutations Δ12 and Δ24, 26 (protein, UniProt P03129 1-98, looked up, variant M12* C24* E26*)
Protein E7: MHGDTPTLHEYLDLQPETTDLYYQLNDSSEEEDEIDGPAGQAEPDRAHYNIVTFCCKCDSTLRLCVQSTHVDIRTLEDLLMGTLGIVCPICSQKP
modifications: GST fusion
% Control Activation Exp. 1 (CDK2): 85.2% | % Control Activation Exp. 2 (CDK2): 93.5%

B8: Δ12; Δ24, 26; Δ31, 32: E7 with combined point mutations Δ12, Δ24, 26 and Δ31, 32 (protein, UniProt P03129 1-98, looked up, variant M12* C24* E26* S31* S32*)
Protein E7: MHGDTPTLHEYLDLQPETTDLYYQLNDEEEDEIDGPAGQAEPDRAHYNIVTFCCKCDSTLRLCVQSTHVDIRTLEDLLMGTLGIVCPICSQKP
modifications: GST fusion
% Control Activation Exp. 2 (CDK2): 83.1%
